Reference: patent publication US20170189524A1 (IMMUNOQURE, published 2017)
One block for each binder: values may come before it.

B1: recombinant human IL-20 (ligand, UniProt Q9NYY1 25-176, looked up)
chain: LKTLNLGSCVIATNLQEIRNGFSEIRGSVQAKDGNIDIRILRRTESLQDTKPANRCCLLRHLLRLYLDRVFKNYQTPDHYTLRKISSLANSFLTIKKDLRLCHAHMTCHCGEEAMKKYSQILSHFEKLEPQAAVVKALGELDILLQWMEETE
notes: also called rhIL-20; hIL-20
B4: recombinant mouse IL-20 (ligand, UniProt Q9JKV9 25-176, looked up)
chain: LKTLHLGSCVITANLQAIQKEFSEIRDSVQAEDTNIDIRILRTTESLKDIKSLDRCCFLRHLVRFYLDRVFKVYQTPDHHTLRKISSLANSFLIIKKDLSVCHSHMACHCGEEAMEKYNQILSHFIELELQAAVVKALGELGILLRWMEEML
notes: also called rmIL-20; murine IL-20

Key:
[1] = target: T1, Type I IL-20 receptor (IL-20RA/IL-20RB) on transfected HEK 293T MSR cells (human, UniProt Q9UHF4 30-553; Q6UXL0 30-311); assay: LCBA, competition with g1 IL-20 on cells expressing Type I IL-20 receptor
T1 construct: whole, on cells; also called IL-20 receptor Type I; IL20RA-Myc-DDK and IL20RB-Myc-DDK; not shown: Myc-DDK tag
T1 sequence (looked up) 1: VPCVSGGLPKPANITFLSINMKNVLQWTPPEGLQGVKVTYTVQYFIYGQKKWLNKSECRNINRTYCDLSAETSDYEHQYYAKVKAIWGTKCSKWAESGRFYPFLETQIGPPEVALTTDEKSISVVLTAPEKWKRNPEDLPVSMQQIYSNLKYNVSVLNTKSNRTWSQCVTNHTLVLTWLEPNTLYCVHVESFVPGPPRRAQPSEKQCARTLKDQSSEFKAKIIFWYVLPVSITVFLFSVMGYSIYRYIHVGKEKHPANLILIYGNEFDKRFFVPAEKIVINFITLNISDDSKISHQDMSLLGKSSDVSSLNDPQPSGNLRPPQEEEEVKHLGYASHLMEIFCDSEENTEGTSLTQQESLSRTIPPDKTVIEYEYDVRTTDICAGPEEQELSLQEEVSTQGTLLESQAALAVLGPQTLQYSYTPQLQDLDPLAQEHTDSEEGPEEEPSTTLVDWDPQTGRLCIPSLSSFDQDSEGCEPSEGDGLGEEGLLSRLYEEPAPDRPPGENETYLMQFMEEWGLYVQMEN
T1 sequence (looked up) 2: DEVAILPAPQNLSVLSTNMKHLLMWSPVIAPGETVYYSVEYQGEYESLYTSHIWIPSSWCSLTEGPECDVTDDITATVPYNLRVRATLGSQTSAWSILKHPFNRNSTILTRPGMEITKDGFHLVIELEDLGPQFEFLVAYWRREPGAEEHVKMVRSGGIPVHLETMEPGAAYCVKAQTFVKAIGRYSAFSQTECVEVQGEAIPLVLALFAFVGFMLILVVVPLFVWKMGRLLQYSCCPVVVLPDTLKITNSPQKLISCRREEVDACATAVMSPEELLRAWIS

[2] = target: T2, g2 IL-20 (fusion protein of human IL-20 fused C-terminally to Gaussia luciferase) (human, UniProt Q9NYY1 25-176); assay: GLuc-sandwich ELISA, fusion protein captured by anti-GLuc antibody, serial dilution of MAB
T2 construct: order of the parts inferred from 'fused; C-terminally (g2 IL-20) to Gaussia luciferase'; the wording is ambiguous; also called GLuc-IL-20; not shown: Gaussia luciferase
T2 sequence (looked up): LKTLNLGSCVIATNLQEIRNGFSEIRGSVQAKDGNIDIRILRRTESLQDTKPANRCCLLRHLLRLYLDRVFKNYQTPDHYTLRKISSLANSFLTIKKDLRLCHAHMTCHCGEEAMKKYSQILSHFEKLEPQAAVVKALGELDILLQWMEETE

[3] = target: T3, g1 IL-20 (fusion protein of human IL-20 with Gaussia luciferase at the IL-20 N-terminus) (human, UniProt Q9NYY1 25-176); assay: as above
T3 construct: also called IL-20-Gaussia luciferase fusion protein; GLuc-IL-20; not shown: Gaussia luciferase (pGaussia1 vector)
T3 sequence (looked up): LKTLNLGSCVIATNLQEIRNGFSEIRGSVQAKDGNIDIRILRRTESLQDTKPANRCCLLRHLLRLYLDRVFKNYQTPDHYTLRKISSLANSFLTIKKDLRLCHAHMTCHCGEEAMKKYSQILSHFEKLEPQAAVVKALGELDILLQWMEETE

[4] = target: T3, g1 IL-20 (fusion protein of human IL-20 …); assay: chemiluminescent cell-binding assay (FIG. 8D): inhibition of g1 IL-20 binding to HEK 293T MSR cells expressing IL-20 receptor; receptor type for this value not stated
[5] = target: T4, corresponding 18mer peptide derived from mouse IL-20 (differs from the human IL-20 101-118-peptide at Y104H … (mouse)); assay: 18mer peptide microarray of murine IL-20
T4 construct: also called corresponding peptide derived from mouse IL-20
T4 peptide: PDHHTLRKISSLANSFLI

recombinant human IL-20 = target: B1; assay: cell-based or functional assay
recombinant mouse IL-20 [6] = target: B4; assay: cell-based or functional assay
[7] = target: T5, peptide 19 of human IL-20, NYQTPDHYTLRKISSLAN (human); assay: 18mer peptide microarray of human IL-20
T5 construct: spotted on a glass microarray through a hydrophilic linker
T5 peptide: NYQTPDHYTLRKISSLAN

[8] = target: T6, peptide 20 of human IL-20, 101-PDHYTLRKISSLANSFLT-118 (human); assay: 18mer peptide microarray of human IL-20, Cy5 anti-human IgG detection
T6 construct: spotted on a glass microarray through a hydrophilic linker; also called human IL-20 101-118-peptide
T6 peptide: PDHYTLRKISSLANSFLT

[9] = target: T1, Type I IL-20 receptor (IL-20RA/IL-20RB) …; assay: LCBA, competition with g1 IL-20 (FIG. 7E)
[10] = target: T7, g1 IFNW (fusion protein of human IFNW with Gaussia luciferase) (human, UniProt P05000 22-195); assay: LCBA cross-competition, g1 IFNW preincubated with soluble antibody (FIG. 18)
T7 construct: also called IFNW-Gaussia luciferase; human IFNW-Gaussia luciferase fusion protein; not shown: Gaussia luciferase
T7 sequence (P05000 22-195): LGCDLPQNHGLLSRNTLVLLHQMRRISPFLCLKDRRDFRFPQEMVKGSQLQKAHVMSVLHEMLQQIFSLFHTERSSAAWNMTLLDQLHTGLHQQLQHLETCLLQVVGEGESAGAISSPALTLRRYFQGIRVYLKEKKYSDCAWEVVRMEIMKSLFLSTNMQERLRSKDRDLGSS

recombinant mouse IL-20 [11] = target: B4; assay: competition GLuc-sandwich ELISA: soluble mouse IL-20 titrated against antibody 1 µg/ml on captured g2 IL-20
[12] = target: T3, g1 IL-20 (fusion protein of human IL-20 …); assay: GLuc-sandwich ELISA

Binder: B1
binding result [1]: binds

Binder: B4
binding result [9]: binds

B7: antibody 6E11 (antibody, IgG1, V domains shown)
VH: QVQLVQSGAEVKKPGSSVKVSCKASGGTFRNYAINWVRQAPRQGLEWMGSLVPMFTSPTYAQKFRGRVTISADESTATSSMELTSLTSEDTAVYFCSADGYKGGLFYGMNVWGQGTTVTVSS
VL: DIVLTQSPESLAVSLGERATINCKSSQSVLYSSNSKNYLAWFQQKPGQPPKLLIYWASTRESGVPDRFSGSGSGTDFTLTITSLQAEDVAVYYCHQYHTLPRTFGHGTKVEIKR
notes: IgG1; also called MAb 6E11
EC50 [2]: 0.347 µg/mL
EC50 [3]: 0.128 µg/mL
binding result (recombinant mouse IL-20 [11]): no binding (tested: 10 µg/ml to 4.6 ng/ml)

B8: antibody 7D1 (antibody, human IgG1, lambda, V domains shown)
VH: EVQLVASGGDFIQPGRSLRLSCAASGFKFDDYAMFWVRQVPGRGLEWVSGISWSSDKMAYVDSVKGRFTISRDNAKNTLYLQMNNLRPDDTAFYYCAKGGFSSVWNYFDFWGQGTLVTVSS
VL: QSVLTQPPSASGTPGQTVIISCSGTTSNIGSNTVSWYRQLPGAAPKLLIFTYNQRPSGVPDRFSGSKSGTSASLAISGLQSDDEADYYCAVWDDALGGWVFGGGTKLTVLG
notes: IgG1, lambda; also called MAb 7D1
EC50 [2]: 0.0271 µg/mL
EC50 [3]: 5.87 µg/mL
EC50 [12]: > 5 µg/mL

Now from value to binder:

EC50 [2]: 0.0065 µg/mL
EC50 [3]: 0.0098 µg/mL
B2: antibody 2A11 (antibody, IgG1, V domains shown)
VH: QVHLVQSGAEVKKPGSSVKVSCKASGGTFNNFPMSWVRQAPGRGLEWMAGIIPVFGSANYAQQFHGRVTISADISTSTVSMELNDLKSEDTGVYYCAISGDEDNWIMNFWGQGTLVTVSS
VL: QSLLTQPPSVSGAPGQRVTISCTGSSSNIGAGYDVHWYQQVPGTAPKLLIYGNRNRPSGVPDRFSGSKSGTSASLAITGLQAEDEADYYCQSYDSSLSGHAVFGGGTKVTVLR
notes: IgG1, lambda; also called MAb 2A11

EC50 [2]: 0.021 µg/mL
EC50 [3]: 0.0186 µg/mL
IC50 [4]: 0.00403 µg/mL
binding result [5]: no binding
IC 50 in the KZ136-NLuc reporter assay (recombinant human IL-20): 0.33 µg/mL
IC 50 in the pSTAT3 Western blot assay (25 ng/ml rmIL-20, Type I IL-20 receptor) (recombinant mouse IL-20 [6]): 1870 ng/ml
binding result [7]: no binding
binding result [8]: binds
B3: antibody 20A10 (antibody, human IgG4, kappa, V domains shown)
VH: QVQLVQSGAEVKKPGSSVKVSCKTSGGTFSTSTLSWVRQAPGQGLEWLGGMIPILSRTTYAQKFQGRLTITADEPTSTSYMELSSLKSEDTAVYYCATEGEVSAAHNYYYGMDVWGQGTTVTVSS
VL: DIVLTQSPLYLPVTPGEPASISCRSSQSLLHGNGHNYLDWYLQKPGQSPQLLIYLGSNRASGVPDRFSGSGSGTDFTLKISRVEAEDVGVYYCMQTLHTVFTFGPGTRVDIKR
notes: Recombinant human-derived antibody; also called MAb 20A10; 20A0

binding result [10]: binds
B5: antibody 26B9 (soluble) (antibody, human IgG1, kappa, V domains shown)
VH: QILLQESGPGLVKPTETLSLTCSVSGDSISDSSHYWAWIRQPPGKGPEWIGSVYFSSMTHYNPSLKSRVSISVDKPKNQFSLKVTSVTVADTATYYCARQALARVGAMNWFDPWGQGSLVTVSS
VL: DIIMTQSPDSLPVSLGEGVTINCKSSQSVFFTSSNKSCLAWYQQKPGKSPKLLIYWASTRQSGVPDRFRGSGSGTDFSLTITSLQAEDVAVYFCQQCQTSPPTFGGGTRLEIKR
notes: IgG1, kappa; also called soluble 26B9

binding result [10]: binds
B6: antibody 31B4 (antibody, human IgG1, kappa, V domains shown)
VH: QIQLQESGPGLVRPTETLSLTCSVSGDSISQSSHYWAWIRQPPGKGPEWIGSVYFSSMTHYNPSLTSRVSISIDKAMNKFSLKVTSVTVADTATYYCARQALARVGAMNWFDPWGQGSLVTVSS
VL: DIIMTQSPESLPVSLGEGVTINCKSSQSVFFTSSNRSCLAWYQQKPGQSPKLLIYWASTRQSGVPDRFTGSGSGTDFSLTIAGLQVEDVAVYFCQQCHASPPTFGGGTRLELRR
notes: IgG1, kappa; clonally related to 26B9
